In PMC4040697 (Cell Death & Disease, 2014):

What was measured:
[1] = biological target: T1, glutathione transferase P1-1 (GSTP1-1), native (UniProt P09211 1-210); assay: ELISA
[2] = biological target: 'Oxidized' GSTP1-1 (oxidatively inactivated) (UniProt P09211 1-210, one intra-chain disulfide bond between cysteine 47 and 101); assay: ELISA
[3] = biological target: T1, glutathione transferase P1-1 (GSTP1-1), …; assay: ELISA; remark: listed apart in the source
[4] = biological target: T1, glutathione transferase P1-1 (GSTP1-1), …; assay: ELISA; remark: listed apart in the source
[5] = biological target: T1, glutathione transferase P1-1 (GSTP1-1), …; assay: ELISA; remark: listed apart in the source
[6] = biological target: T1, glutathione transferase P1-1 (GSTP1-1), …; assay: ELISA; remark: listed apart in the source
[7] = biological target: T1, glutathione transferase P1-1 (GSTP1-1), …; assay: ELISA; remark: listed apart in the source
[8] = biological target: T1, glutathione transferase P1-1 (GSTP1-1), …; assay: ELISA; remark: listed apart in the source
[9] = biological target: T1, glutathione transferase P1-1 (GSTP1-1), …; assay: other fluorescence titration
[10] = biological target: T1, glutathione transferase P1-1 (GSTP1-1), …; assay: other fluorescence titration; remark: listed apart in the source

T1 sequence (P09211 whole entry): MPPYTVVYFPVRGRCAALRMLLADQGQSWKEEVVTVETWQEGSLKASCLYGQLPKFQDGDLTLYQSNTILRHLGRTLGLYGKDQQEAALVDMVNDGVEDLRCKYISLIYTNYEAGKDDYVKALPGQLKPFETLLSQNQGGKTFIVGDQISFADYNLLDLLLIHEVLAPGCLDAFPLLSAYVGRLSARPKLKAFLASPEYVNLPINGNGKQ
Chain of 'Oxidized' GSTP1-1 (oxidatively inactivated) (P09211 whole entry): as above

Row | Binder | Kd [1] [nM] | Kd [2] [nM] | Kd [3] [nM] | Kd [4] [nM] | Kd [5] [nM] | Kd [6] [nM] | Kd [7] [µM] | Kd [8] [nM] | Kd [9] [nM] | Kd [10] [µM]
1 | His-tagged C-terminal domain of TRAF2 (residues 310–501) (domain or fragment, human, UniProt Q12933 310-501, looked up) DQDKIEALSSKVQQLERSIGLKDLAMADLEQKVLEMEASTYDGVFIWKISDFARKRQEAVAGRIPAIFSPAFYTSRYGYKMCLRIYLNGDGTGRGTHLSLFFVVMKGPNDALLRWPFNQKVTLMLLDQNNREHVIDAFRPDVTSSSFQRPVNDMNIASGCPLFCPVSKMEAKNSYVRDDAIFIKAIVDLTGL | 290 | 1700 | 2700 | 1200 | 2600 | 930 | ≥ 5 | 490 |  | 
2 | Dansylated TRAF2 (C-terminal domain, residues 310–501) (domain or fragment, human, UniProt Q12933 310-501, looked up, dansyl, mole ratio of dansyl/TRAF2 2 : 1; labelled residues not stated) DQDKIEALSSKVQQLERSIGLKDLAMADLEQKVLEMEASTYDGVFIWKISDFARKRQEAVAGRIPAIFSPAFYTSRYGYKMCLRIYLNGDGTGRGTHLSLFFVVMKGPNDALLRWPFNQKVTLMLLDQNNREHVIDAFRPDVTSSSFQRPVNDMNIASGCPLFCPVSKMEAKNSYVRDDAIFIKAIVDLTGL |  |  |  |  |  |  |  |  | 300 | 4.6
